Data published in article PMC2832190.

Target: (Ni2+-NTA)2-Cy3-His6-AGT (O6-alkylguanine-DNA alkyltransferase) (human, UniProt P16455 1-207)
Assay: FRET

Chain of (Ni2+-NTA)2-Cy3-His6-AGT (O6-alkylguanine-DNA alkyltransferase) (P16455 whole entry): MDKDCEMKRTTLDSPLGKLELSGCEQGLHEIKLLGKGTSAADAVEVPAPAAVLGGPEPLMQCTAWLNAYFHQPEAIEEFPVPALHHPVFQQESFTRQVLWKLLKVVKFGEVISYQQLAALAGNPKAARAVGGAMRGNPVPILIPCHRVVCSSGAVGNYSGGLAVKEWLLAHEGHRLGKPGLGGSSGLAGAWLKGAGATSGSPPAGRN

## GACTGACTGACTGACTGACTGACTGA (ssDNA) [FAM-DNA 26-mer]
  apparent K (half saturation): 554000 M⁻¹
